# From publication PMC10954479 (Nucleic Acids Research, 2024)
# Changes are numbered by the printed parent chain. Names and notes keep the numbering of the source.
# T1: HDAC4GRD (residues 62–192) F93D mutant (human, UniProt P56524 62-192, F93D)
# T1 sequence: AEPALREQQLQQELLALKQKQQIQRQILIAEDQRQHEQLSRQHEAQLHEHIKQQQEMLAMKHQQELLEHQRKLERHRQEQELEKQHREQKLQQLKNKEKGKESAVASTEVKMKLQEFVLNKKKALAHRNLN
# B1: 15 bp crystallization DNA (dsDNA)
# DNA 1: AAACTATTTATAAGA
# DNA 2: TCTTATAAATAGTTT
# B2: human HDAC4 glutamine-rich domain (HDAC4GRD, residues 62–192), wild type (domain or fragment)
# chain: T1 sequence with D32F
# B3: human MEF2A MADS-box/MEF2s domain (residues 1–95) (domain or fragment)
# chain: MGRKKIQITRIMDERNRQVTFTKRKFGLMKKAYELSVLCDCEIALIIFNSSNKLFQYASTDMDKVLLKYTEYNEPHESRTNSDIVEALNKKEHRG
# B4: HDAC4GRD (residues 62–192) H109D mutant (domain or fragment)
# chain: T1 sequence with D32F, H48D
# B5: 28 bp EMSA DNA (dsDNA)
# DNA 1: GGGAAAGTTTCTATTATTAGCAGAGATA
# DNA 2: TATCTCTGCTAATAATAGAAACTTTCCC
# B6: Site-1 DNA (dsDNA)
# DNA 1: GGGAAAGTTTCTATTATTAGCAGAGATA
# DNA 2: TATCTCTGCTAATAATAGAAACTTTCCC
# B7: Site-2 DNA (dsDNA)
# DNA 1: CTAAGCAAATGAGATGAATATGCAGGGCACCATGCTAAAAATAAAATGGTTTCATGGTGCTAGTGAGGAAGGAA
# DNA 2: TTCCTTCCTCACTAGCACCATGAAACCATTTTATTTTTAGCATGGTGCCCTGCATATTCATCTCATTTGCTTAG
# Tests used:
# MEF2A1-95;HDAC4GRD WT [1] = biological target: T2, MEF2A1-95;HDAC4GRD WT (Homo sapiens;Homo sapiens, UniProt Q02078;P56524 1-95;62-192, |); test: X-ray crystallography
# crystal structure = biological target: the molecule itself; test: crystal structure
# [2] = biological target: T1, HDAC4GRD (residues 62–192) F93D mutant; test: native gel or EMSA
# [3] = biological target: B4; test: native gel or EMSA
# SEC = biological target: the molecule itself; test: SEC
# MEF2A1-95;HDAC4GRD WT [4] = biological target: T2, MEF2A1-95;HDAC4GRD WT; test: EMSA
# MEF2A1-95;HDAC4GRD F93D = MEF2A1-95;HDAC4GRD F93D (Homo sapiens;Homo sapiens, UniProt Q02078;P56524 1-95;62-192, |F93D); test: EMSA
# MEF2A1-95;HDAC4GRD H109D [5] = biological target: T3, MEF2A1-95;HDAC4GRD H109D (Homo sapiens;Homo sapiens, UniProt Q02078;P56524 1-95;62-192, |H109D); test: EMSA
# MEF2A1-95;HDAC4GRD WT [6] = biological target: T2, MEF2A1-95;HDAC4GRD WT; test: pull-down
# MEF2A1-95;HDAC4GRD WT [7] = biological target: T2, MEF2A1-95;HDAC4GRD WT; test: pull-down; remark: listed apart in the source
# MEF2A1-95;HDAC4GRD H109D [8] = biological target: T3, MEF2A1-95;HDAC4GRD H109D; test: pull-down
binder,measurement,setting,value
B1,binding result,MEF2A1-95;HDAC4GRD WT [1],binds
B2,stoichiometry N,crystal structure,2
B3,binding result,[2],binds
same,binding result,[3],binds
same,stoichiometry N,crystal structure,2
B4,binding result,SEC,binds
B5,binding result,MEF2A1-95;HDAC4GRD WT [4],binds
same,binding result,MEF2A1-95;HDAC4GRD F93D,binds
same,binding result,MEF2A1-95;HDAC4GRD H109D [5],binds
B6,binding result,MEF2A1-95;HDAC4GRD WT [6],binds
B7,binding result,MEF2A1-95;HDAC4GRD WT [7],binds
same,binding result,MEF2A1-95;HDAC4GRD H109D [8],binds
